Patent US11583589B2, “Cell membrane penetrating conjugates” (priority 2017, dated 2023)

Test system: HeLa cells
Test: Cellular uptake of NHS-coumarin labelled proteins, fluorescence microscopy
Format: cell-based
Experimental: Labelling of proteins with fluorescent dyes—Fluorescent dyes were considered as an example of a functional molecule for investigating the cell membrane penetration ability of the conjugate. Labelling of the recombinant protein with a dye was carried out by performing a series of reaction in dark conditions. The protein to be labelled was collected in PBS buffer (1× and pH 7.3) and the dye was collected at two to three times higher concentration to that of the protein. The protein was added to 0.1M sodium carbonate buffer (pH 8.5) followed by the dye. The dye was added very slowly (30 μl each time) to the buffer containing the protein kept on ice accompanied by occasional shaking. The resulting solution was wrapped with aluminium foil to keep away any light. The solution was stirred for 1 hour at room temperature and was then purified by gel filtration, i.e. passed through a desalting column or a PD 10 column with 1×PBS buffer. […]
Cellular uptake of labelled proteins—The uptake of labelled proteins was checked by treating mammalian cells with different labelled proteins such as AlbG (SEQ ID NO: 1), EfsQNR (SEQ ID NO: 2) and, as a comparative example, TtCuA (SEQ ID NO: 13). […] The cells were then washed twice, after 3 hours and 24 hours with HBSS (Hanks […] salt solution) or PBS and observed under fluorescence microscopy and/or confocal laser scanning microscope. […]

B1: TtCuA-NHSC: comparative example: TtCuA protein (SEQ ID NO: 13, Thermus thermophilus) labelled with NHS-coumarin dye (conjugate)
chain: AYTLATHTAGVIPAGKLERVDPTTVRQEGPWADPAQAVVQTGPNQYTVYVLAFAFGYQPNPIEVPQGAEIVFKITSPDVIHGFHVEGTNINVEVLPGEVSTVRYTFKRPGEYRIICNQYCGLGHQNMFGTIVVKE
modifications: NHS-coumarin dye label; Amino acid sequence of TtCuA protein
Q: How did the “fluorescence inside the cells (presence of conjugate inside the cells)” value (NHS-C labelled protein, Hoechst Blue co-stain) turn out when B1 was run?
A: Its value is “significantly less fluorescence”.

Q: And the “cell penetration ability (cell uptake), compared between conjugates” value (NHS-C labelled proteins)?
A: Its value is “not able to effectively penetrate the cell membrane”.
